Results as given in the supplement of paper PMC11908140.

B1: library; numbered along this chain (parent)
chain: MRKPRAAVGSGHRKQAASQEGRQKHAKNNSQAKPSACDGLARQPEEVVLQASVSSYHLFRDVAEVTAFRGSLLSWYDQEKRDLPWRRRAEDEMDLDRRAYAVWVSEVMLQQTQVATVINYYTGWMQKWPTLQDLASASLEEVNQLWAGLGYYSRGRRLQEGARKVVEELGGHMPRTAETLQQLLPGVGRYTAGAIASIAFGQATGVVDGNVARVLCRVRAIGADPSSTLVSQQLWGLAQQLVDPARPGDFNQAAMELGATVCTPQRPLCSQCPVESLCRARQRVEQEQLLASGSLSGSPDVEECAPNTGQCHLCLPPSEPWDQTLGVVNFPRKASRKPPREESSATCVLEQPGALGAQILLVQRPNSGLLAGLWEFPSVTWEPSEQLQRKALLQELQRWAGPLPATHLRHLGEVVHTFSHIKLTYQVYGLALEGQTPVTTVPPGARWLTQEEFHTAAVSTAMKKVFRVYQGQQPGTCMGSKRSQVSSPCSRKKPRMGQQVLDNFFRSHISTDAHSLNSAAQ

Variants of: B1
Experiment: 8OG:A repair function score (normalized; synonymous = 0, nonsense = -1) (normalized log-likelihood score); higher = more repair activity (WT-like)
Details: with 8OG:A DNA repair reporter (GFP) in HEK-293 MUTYH KO cells
Method: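 Saturation mutagenesis (NNN codon scan) of the MUTYH cDNA (521-aa nuclear isoform NM_001048174.1 / NP_001041639), stably expressed under doxycycline induction in HEK-293 MUTYH knockout cells. Cells were co-transfected with an 8OG:A-bearing GFP repair reporter plus mCherry and sorted 72 h later into GFP+ and GFP− bins, three replicates per tile. The Rosace log2 enrichment (GFP+ vs GFP−) was converted per tile to a normalized function score with synonymous variants centered at 0 and nonsense variants (codons 1-471) at -1; low-abundance variants were removed.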

Variant | 8OG:A repair function score
MRKPRAAVGSGHRKQAASQEGRQKHAKNNSQAKPSACDGLARQPEEVVLQASVSSYHLFRDVAEVTAFRGSLLSWYDQEKRDLPWRRRAEDEMDLDRRAYAVWVSEVMLQQTQVATVINYYTGWMQKWPTLQDLASASLEEVNQLWAGLGYYSRGRRLQEGARKVVEELGGHMPRTAETLQQLLPGVGRCTAGAIASIAFGQATGVVDGNVARVLCRVRAIGADPSSTLVSQQLWGLAQQLVDPARPGDFNQAAMELGATVCTPQRPLCSQCPVESLCRARQRVEQEQLLASGSLSGSPDVEECAPNTGQCHLCLPPSEPWDQTLGVVNFPRKASRKPPREESSATCVLEQPGALGAQILLVQRPNSGLLAGLWEFPSVTWEPSEQLQRKALLQELQRWAGPLPATHLRHLGEVVHTFSHIKLTYQVYGLALEGQTPVTTVPPGARWLTQEEFHTAAVSTAMKKVFRVYQGQQPGTCMGSKRSQVSSPCSRKKPRMGQQVLDNFFRSHISTDAHSLNSAAQ [Y190C] | -0.373
MRKPRAAVGSGHRKQAASQEGRQKHAKNNSQAKPSACDGLARQPEEVVLQASVSSYHLFRDVAEVTAFRGSLLSWYDQEKRDLPWRRRAEDEMDLDRRAYAVWVSEVMLQQTQVATVINYYTGWMQKWPTLQDLASASLEEVNQLWAGLGYYSRGRRLQEGARKVVEELGGHMPRTAETLQQLLPGVGRDTAGAIASIAFGQATGVVDGNVARVLCRVRAIGADPSSTLVSQQLWGLAQQLVDPARPGDFNQAAMELGATVCTPQRPLCSQCPVESLCRARQRVEQEQLLASGSLSGSPDVEECAPNTGQCHLCLPPSEPWDQTLGVVNFPRKASRKPPREESSATCVLEQPGALGAQILLVQRPNSGLLAGLWEFPSVTWEPSEQLQRKALLQELQRWAGPLPATHLRHLGEVVHTFSHIKLTYQVYGLALEGQTPVTTVPPGARWLTQEEFHTAAVSTAMKKVFRVYQGQQPGTCMGSKRSQVSSPCSRKKPRMGQQVLDNFFRSHISTDAHSLNSAAQ [Y190D] | -0.858
MRKPRAAVGSGHRKQAASQEGRQKHAKNNSQAKPSACDGLARQPEEVVLQASVSSYHLFRDVAEVTAFRGSLLSWYDQEKRDLPWRRRAEDEMDLDRRAYAVWVSEVMLQQTQVATVINYYTGWMQKWPTLQDLASASLEEVNQLWAGLGYYSRGRRLQEGARKVVEELGGHMPRTAETLQQLLPGVGRETAGAIASIAFGQATGVVDGNVARVLCRVRAIGADPSSTLVSQQLWGLAQQLVDPARPGDFNQAAMELGATVCTPQRPLCSQCPVESLCRARQRVEQEQLLASGSLSGSPDVEECAPNTGQCHLCLPPSEPWDQTLGVVNFPRKASRKPPREESSATCVLEQPGALGAQILLVQRPNSGLLAGLWEFPSVTWEPSEQLQRKALLQELQRWAGPLPATHLRHLGEVVHTFSHIKLTYQVYGLALEGQTPVTTVPPGARWLTQEEFHTAAVSTAMKKVFRVYQGQQPGTCMGSKRSQVSSPCSRKKPRMGQQVLDNFFRSHISTDAHSLNSAAQ [Y190E] | -0.808
MRKPRAAVGSGHRKQAASQEGRQKHAKNNSQAKPSACDGLARQPEEVVLQASVSSYHLFRDVAEVTAFRGSLLSWYDQEKRDLPWRRRAEDEMDLDRRAYAVWVSEVMLQQTQVATVINYYTGWMQKWPTLQDLASASLEEVNQLWAGLGYYSRGRRLQEGARKVVEELGGHMPRTAETLQQLLPGVGRGTAGAIASIAFGQATGVVDGNVARVLCRVRAIGADPSSTLVSQQLWGLAQQLVDPARPGDFNQAAMELGATVCTPQRPLCSQCPVESLCRARQRVEQEQLLASGSLSGSPDVEECAPNTGQCHLCLPPSEPWDQTLGVVNFPRKASRKPPREESSATCVLEQPGALGAQILLVQRPNSGLLAGLWEFPSVTWEPSEQLQRKALLQELQRWAGPLPATHLRHLGEVVHTFSHIKLTYQVYGLALEGQTPVTTVPPGARWLTQEEFHTAAVSTAMKKVFRVYQGQQPGTCMGSKRSQVSSPCSRKKPRMGQQVLDNFFRSHISTDAHSLNSAAQ [Y190G] | -0.381
MRKPRAAVGSGHRKQAASQEGRQKHAKNNSQAKPSACDGLARQPEEVVLQASVSSYHLFRDVAEVTAFRGSLLSWYDQEKRDLPWRRRAEDEMDLDRRAYAVWVSEVMLQQTQVATVINYYTGWMQKWPTLQDLASASLEEVNQLWAGLGYYSRGRRLQEGARKVVEELGGHMPRTAETLQQLLPGVGRATAGAIASIAFGQATGVVDGNVARVLCRVRAIGADPSSTLVSQQLWGLAQQLVDPARPGDFNQAAMELGATVCTPQRPLCSQCPVESLCRARQRVEQEQLLASGSLSGSPDVEECAPNTGQCHLCLPPSEPWDQTLGVVNFPRKASRKPPREESSATCVLEQPGALGAQILLVQRPNSGLLAGLWEFPSVTWEPSEQLQRKALLQELQRWAGPLPATHLRHLGEVVHTFSHIKLTYQVYGLALEGQTPVTTVPPGARWLTQEEFHTAAVSTAMKKVFRVYQGQQPGTCMGSKRSQVSSPCSRKKPRMGQQVLDNFFRSHISTDAHSLNSAAQ [Y190A] | -0.38
MRKPRAAVGSGHRKQAASQEGRQKHAKNNSQAKPSACDGLARQPEEVVLQASVSSYHLFRDVAEVTAFRGSLLSWYDQEKRDLPWRRRAEDEMDLDRRAYAVWVSEVMLQQTQVATVINYYTGWMQKWPTLQDLASASLEEVNQLWAGLGYYSRGRRLQEGARKVVEELGGHMPRTAETLQQLLPGVGRHTAGAIASIAFGQATGVVDGNVARVLCRVRAIGADPSSTLVSQQLWGLAQQLVDPARPGDFNQAAMELGATVCTPQRPLCSQCPVESLCRARQRVEQEQLLASGSLSGSPDVEECAPNTGQCHLCLPPSEPWDQTLGVVNFPRKASRKPPREESSATCVLEQPGALGAQILLVQRPNSGLLAGLWEFPSVTWEPSEQLQRKALLQELQRWAGPLPATHLRHLGEVVHTFSHIKLTYQVYGLALEGQTPVTTVPPGARWLTQEEFHTAAVSTAMKKVFRVYQGQQPGTCMGSKRSQVSSPCSRKKPRMGQQVLDNFFRSHISTDAHSLNSAAQ [Y190H] | -0.198
MRKPRAAVGSGHRKQAASQEGRQKHAKNNSQAKPSACDGLARQPEEVVLQASVSSYHLFRDVAEVTAFRGSLLSWYDQEKRDLPWRRRAEDEMDLDRRAYAVWVSEVMLQQTQVATVINYYTGWMQKWPTLQDLASASLEEVNQLWAGLGYYSRGRRLQEGARKVVEELGGHMPRTAETLQQLLPGVGRFTAGAIASIAFGQATGVVDGNVARVLCRVRAIGADPSSTLVSQQLWGLAQQLVDPARPGDFNQAAMELGATVCTPQRPLCSQCPVESLCRARQRVEQEQLLASGSLSGSPDVEECAPNTGQCHLCLPPSEPWDQTLGVVNFPRKASRKPPREESSATCVLEQPGALGAQILLVQRPNSGLLAGLWEFPSVTWEPSEQLQRKALLQELQRWAGPLPATHLRHLGEVVHTFSHIKLTYQVYGLALEGQTPVTTVPPGARWLTQEEFHTAAVSTAMKKVFRVYQGQQPGTCMGSKRSQVSSPCSRKKPRMGQQVLDNFFRSHISTDAHSLNSAAQ [Y190F] | -0.574
MRKPRAAVGSGHRKQAASQEGRQKHAKNNSQAKPSACDGLARQPEEVVLQASVSSYHLFRDVAEVTAFRGSLLSWYDQEKRDLPWRRRAEDEMDLDRRAYAVWVSEVMLQQTQVATVINYYTGWMQKWPTLQDLASASLEEVNQLWAGLGYYSRGRRLQEGARKVVEELGGHMPRTAETLQQLLPGVGVYTAGAIASIAFGQATGVVDGNVARVLCRVRAIGADPSSTLVSQQLWGLAQQLVDPARPGDFNQAAMELGATVCTPQRPLCSQCPVESLCRARQRVEQEQLLASGSLSGSPDVEECAPNTGQCHLCLPPSEPWDQTLGVVNFPRKASRKPPREESSATCVLEQPGALGAQILLVQRPNSGLLAGLWEFPSVTWEPSEQLQRKALLQELQRWAGPLPATHLRHLGEVVHTFSHIKLTYQVYGLALEGQTPVTTVPPGARWLTQEEFHTAAVSTAMKKVFRVYQGQQPGTCMGSKRSQVSSPCSRKKPRMGQQVLDNFFRSHISTDAHSLNSAAQ [R189V] | -0.148
MRKPRAAVGSGHRKQAASQEGRQKHAKNNSQAKPSACDGLARQPEEVVLQASVSSYHLFRDVAEVTAFRGSLLSWYDQEKRDLPWRRRAEDEMDLDRRAYAVWVSEVMLQQTQVATVINYYTGWMQKWPTLQDLASASLEEVNQLWAGLGYYSRGRRLQEGARKVVEELGGHMPRTAETLQQLLPGVGSYTAGAIASIAFGQATGVVDGNVARVLCRVRAIGADPSSTLVSQQLWGLAQQLVDPARPGDFNQAAMELGATVCTPQRPLCSQCPVESLCRARQRVEQEQLLASGSLSGSPDVEECAPNTGQCHLCLPPSEPWDQTLGVVNFPRKASRKPPREESSATCVLEQPGALGAQILLVQRPNSGLLAGLWEFPSVTWEPSEQLQRKALLQELQRWAGPLPATHLRHLGEVVHTFSHIKLTYQVYGLALEGQTPVTTVPPGARWLTQEEFHTAAVSTAMKKVFRVYQGQQPGTCMGSKRSQVSSPCSRKKPRMGQQVLDNFFRSHISTDAHSLNSAAQ [R189S] | -0.0964
MRKPRAAVGSGHRKQAASQEGRQKHAKNNSQAKPSACDGLARQPEEVVLQASVSSYHLFRDVAEVTAFRGSLLSWYDQEKRDLPWRRRAEDEMDLDRRAYAVWVSEVMLQQTQVATVINYYTGWMQKWPTLQDLASASLEEVNQLWAGLGYYSRGRRLQEGARKVVEELGGHMPRTAETLQQLLPGVGYYTAGAIASIAFGQATGVVDGNVARVLCRVRAIGADPSSTLVSQQLWGLAQQLVDPARPGDFNQAAMELGATVCTPQRPLCSQCPVESLCRARQRVEQEQLLASGSLSGSPDVEECAPNTGQCHLCLPPSEPWDQTLGVVNFPRKASRKPPREESSATCVLEQPGALGAQILLVQRPNSGLLAGLWEFPSVTWEPSEQLQRKALLQELQRWAGPLPATHLRHLGEVVHTFSHIKLTYQVYGLALEGQTPVTTVPPGARWLTQEEFHTAAVSTAMKKVFRVYQGQQPGTCMGSKRSQVSSPCSRKKPRMGQQVLDNFFRSHISTDAHSLNSAAQ [R189Y] | -0.336
MRKPRAAVGSGHRKQAASQEGRQKHAKNNSQAKPSACDGLARQPEEVVLQASVSSYHLFRDVAEVTAFRGSLLSWYDQEKRDLPWRRRAEDEMDLDRRAYAVWVSEVMLQQTQVATVINYYTGWMQKWPTLQDLASASLEEVNQLWAGLGYYSRGRRLQEGARKVVEELGGHMPRTAETLQQLLPGVGWYTAGAIASIAFGQATGVVDGNVARVLCRVRAIGADPSSTLVSQQLWGLAQQLVDPARPGDFNQAAMELGATVCTPQRPLCSQCPVESLCRARQRVEQEQLLASGSLSGSPDVEECAPNTGQCHLCLPPSEPWDQTLGVVNFPRKASRKPPREESSATCVLEQPGALGAQILLVQRPNSGLLAGLWEFPSVTWEPSEQLQRKALLQELQRWAGPLPATHLRHLGEVVHTFSHIKLTYQVYGLALEGQTPVTTVPPGARWLTQEEFHTAAVSTAMKKVFRVYQGQQPGTCMGSKRSQVSSPCSRKKPRMGQQVLDNFFRSHISTDAHSLNSAAQ [R189W] | -0.343
MRKPRAAVGSGHRKQAASQEGRQKHAKNNSQAKPSACDGLARQPEEVVLQASVSSYHLFRDVAEVTAFRGSLLSWYDQEKRDLPWRRRAEDEMDLDRRAYAVWVSEVMLQQTQVATVINYYTGWMQKWPTLQDLASASLEEVNQLWAGLGYYSRGRRLQEGARKVVEELGGHMPRTAETLQQLLPGVGTYTAGAIASIAFGQATGVVDGNVARVLCRVRAIGADPSSTLVSQQLWGLAQQLVDPARPGDFNQAAMELGATVCTPQRPLCSQCPVESLCRARQRVEQEQLLASGSLSGSPDVEECAPNTGQCHLCLPPSEPWDQTLGVVNFPRKASRKPPREESSATCVLEQPGALGAQILLVQRPNSGLLAGLWEFPSVTWEPSEQLQRKALLQELQRWAGPLPATHLRHLGEVVHTFSHIKLTYQVYGLALEGQTPVTTVPPGARWLTQEEFHTAAVSTAMKKVFRVYQGQQPGTCMGSKRSQVSSPCSRKKPRMGQQVLDNFFRSHISTDAHSLNSAAQ [R189T] | -0.184
